According to patent US20210277138A1 (BLACK BELT THERAPEUTICS, published 2021):

T1: human CD38 expressed on cells (Daudi cells, human PBMC / T cells) (human, UniProt P28907 1-300)
T1 sequence: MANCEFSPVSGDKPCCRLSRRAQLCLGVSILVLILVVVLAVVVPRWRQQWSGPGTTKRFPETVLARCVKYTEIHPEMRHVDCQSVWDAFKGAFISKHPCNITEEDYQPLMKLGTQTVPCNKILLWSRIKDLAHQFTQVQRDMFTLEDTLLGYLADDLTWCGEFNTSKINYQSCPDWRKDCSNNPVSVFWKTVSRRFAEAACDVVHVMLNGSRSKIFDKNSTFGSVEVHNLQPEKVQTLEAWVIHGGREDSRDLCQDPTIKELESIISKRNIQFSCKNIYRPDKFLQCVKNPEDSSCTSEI

B1: aCD38-b-329 (antibody, human IgG1, V domains shown)
VH: QLQLQESGPGLVKPSETLSLTCTVSGGSISSSDYYWGWIRQPPGKGLEWIGSIYYSGSTYYNPSLKSRVTISVDTSKNQFSLKLSSVTAADTAVYYCARGQYSSGWYAYPFDMWGQGTMVTVSS
VL: EIVLTQSPGTLSLSPGERATLSCRASQSVRSSYLAWYQQKPGQAPRLLIYGASSRATGIPDRFSGSGSGTDFTLTISRLEPEDFAVYYCQQDGAVFTFGGGTKVEIK
B2: aCD38-b-329-m6 (antibody, IgG1, V domains shown)
VH: QLQLQESGPGLVKPSETLSLTCTVSGGSISSSDYYWGWIRQPPGKGLEWIGSIYYSGSTYYNPSLKSRVTISVDTSKNQFSLKLSSVTAADTAVYYCARGQYSSGWYAYPFDMWGQGTMVTVSS
VL: EIVLTQSPGTLSLSPGERATLSCRASQSVRSSYLAWYQQKPGQAPRLLIYGASSRATGIPDRFSGSGSGTDFTLTISRLEPEDFAVYYCQQDEAVFTFGGGTKVEIK
B3: aCD38-b-329-m7 (antibody, IgG1, V domains shown)
VH: QLQLQESGPGLVKPSETLSLTCTVSGGSISSSDYYWGWIRQPPGKGLEWIGSIYYSGSTYYNPSLKSRVTISVDTSKNQFSLKLSSVTAADTAVYYCARGQYSSGWYAYPFDMWGQGTMVTVSS
VL: EIVLTQSPGTLSLSPGERATLSCRASQSVRSSYLAWYQQKPGQAPRLLIYGASSRATGIPDRFSGSGSGTDFTLTISRLEPEDFAVYYCQQDSAVFTFGGGTKVEIK

Legend:
[1] = target: T1, human CD38 expressed on cells (Daudi …); test: cell-based or functional assay
[2] = target: T1, human CD38 expressed on cells (Daudi …); test: cell-based or functional assay; remark: listed apart in the source
[3] = target: T1, human CD38 expressed on cells (Daudi …); test: flow cytometry on human PBMC, gated on CD4-positive cells, fluorescent secondary antibody [lower panel (gated on CD4-positive cells]
Experimental: (§1) Binding of anti-CD38 Antibodies to CD38-expressing cells: The candidate hits are evaluated by analysing the binding to human PBMC. […] Cells were then washed and labelled with an AF488 secondary antibody. Cells were then incubated with additional surface staining antibodies: anti-CD3 PE-Cy7, anti-CD4 APC and anti-CD8 BV451. Sample acquisition was performed using 8-colour (three laser) BD FACSCanto II cytometer, running on the BD FACSDiva software (BD Biosciences). Post-analysis processing and was conducted using FCS Express (v3.0) software (DeNovo software). The relative proportions (%) of the different cell populations and Median Fluorescence Intensity (MFI) data were reported to 2 decimal places.

[4] = target: T1, human CD38 expressed on cells (Daudi …); test: flow cytometry on human PBMC, gated on CD8-positive cells, fluorescent secondary antibody [upper panel (gated on CD8-positive cells]
Experimental: as §1

Row | Binder | ADCC EC50 ug/ml, target Daudi cells, experiment 1 [1] [µg/mL] | ADCC EC50 ug/ml, target Daudi cells, experiment 2 [1] [µg/mL] | ADCC target lysis EC50 [2] [ng/mL] | ADCC target lysis Max. % lysis [2] [%] | EC50 (read off the curve) [3] [pM] | EC50 (read off the curve) [4] [pM]
1 | B1 | 0.011 | 0.0062 | 6.2 | 49 | ~70 | ~70
2 | B2 |  |  | 2.4 | 47 |  | 
3 | B3 |  |  | 3.5 | 43 |  | 
